The target of test [1] is cynomolgus monkey C-MET His tag, monomeric (cynomolgus monkey). Briefly: SPR Biacore, IgG captured, monomeric C-MET-His analyte. For orientation: In SPR one partner is held on a chip, and binding of the other changes the refractive index at the surface.
Test [2] addresses human C-MET His tagged, monomeric (human) (UniProt P08581). The description is as above.
Test [3] concerns the target human C-MET on stably transfected CHO-K1 cells (human) (UniProt P08581). Briefly: flow cytometry, C-MET CHO-K1 cells.
Test [4] addresses cynomolgus monkey C-MET on stably transfected CHO-K1 cells (cynomolgus monkey). Briefly: flow cytometry, C-MET CHO-K1 cells. (Flow cytometry measures light scatter and fluorescence of single cells or particles in a stream.)
Test [5] has as its target cynomolgus monkey C-MET His tag, monomeric (cynomolgus monkey). Briefly: SPR Biacore, monomeric cyno against monomeric human C-MET.

From patent US20260042850A1 come the findings set out here.

cynomolgus monkey C-MET on stably transfected CHO-K1 cells (cynomolgus monkey), sequence (A0M8R7 25-1381 S170N/I621T limits assumed): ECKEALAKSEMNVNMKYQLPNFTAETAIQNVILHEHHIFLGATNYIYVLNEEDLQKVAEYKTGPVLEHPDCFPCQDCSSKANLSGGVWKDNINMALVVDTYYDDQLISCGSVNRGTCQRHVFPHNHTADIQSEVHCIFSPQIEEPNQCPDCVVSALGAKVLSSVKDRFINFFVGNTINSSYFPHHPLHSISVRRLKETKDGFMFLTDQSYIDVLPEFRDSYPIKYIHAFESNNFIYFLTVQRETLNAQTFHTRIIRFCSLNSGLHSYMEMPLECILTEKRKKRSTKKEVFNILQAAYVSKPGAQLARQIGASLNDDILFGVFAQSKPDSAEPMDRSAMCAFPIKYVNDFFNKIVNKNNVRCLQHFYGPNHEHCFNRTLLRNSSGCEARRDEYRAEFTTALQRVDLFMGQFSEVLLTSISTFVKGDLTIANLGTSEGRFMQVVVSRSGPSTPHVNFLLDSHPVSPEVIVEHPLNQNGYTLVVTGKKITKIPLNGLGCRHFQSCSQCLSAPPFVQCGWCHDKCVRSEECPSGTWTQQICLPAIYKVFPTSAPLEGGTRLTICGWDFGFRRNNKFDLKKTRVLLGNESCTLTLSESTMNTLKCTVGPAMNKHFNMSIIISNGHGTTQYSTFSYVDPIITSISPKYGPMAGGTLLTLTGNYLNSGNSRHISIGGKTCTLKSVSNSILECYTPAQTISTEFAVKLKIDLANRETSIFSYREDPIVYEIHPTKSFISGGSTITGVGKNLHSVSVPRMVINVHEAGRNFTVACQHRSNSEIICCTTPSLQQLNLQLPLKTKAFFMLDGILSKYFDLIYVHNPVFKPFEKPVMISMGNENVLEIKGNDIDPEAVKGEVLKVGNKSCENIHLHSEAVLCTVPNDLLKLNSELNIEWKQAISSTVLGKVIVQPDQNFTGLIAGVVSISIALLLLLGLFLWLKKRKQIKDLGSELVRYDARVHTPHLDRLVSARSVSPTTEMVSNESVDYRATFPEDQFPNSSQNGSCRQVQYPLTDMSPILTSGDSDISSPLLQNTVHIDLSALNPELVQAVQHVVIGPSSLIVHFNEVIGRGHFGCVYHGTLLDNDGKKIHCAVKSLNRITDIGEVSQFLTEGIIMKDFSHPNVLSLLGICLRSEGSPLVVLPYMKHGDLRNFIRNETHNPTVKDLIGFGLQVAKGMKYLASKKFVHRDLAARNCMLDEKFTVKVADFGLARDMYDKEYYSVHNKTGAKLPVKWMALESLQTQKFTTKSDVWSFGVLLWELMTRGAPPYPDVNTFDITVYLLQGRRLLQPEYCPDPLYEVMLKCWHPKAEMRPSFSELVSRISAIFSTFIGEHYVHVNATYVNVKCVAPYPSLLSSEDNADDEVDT
human C-MET His tagged, monomeric (human), sequence (P08581 25-932): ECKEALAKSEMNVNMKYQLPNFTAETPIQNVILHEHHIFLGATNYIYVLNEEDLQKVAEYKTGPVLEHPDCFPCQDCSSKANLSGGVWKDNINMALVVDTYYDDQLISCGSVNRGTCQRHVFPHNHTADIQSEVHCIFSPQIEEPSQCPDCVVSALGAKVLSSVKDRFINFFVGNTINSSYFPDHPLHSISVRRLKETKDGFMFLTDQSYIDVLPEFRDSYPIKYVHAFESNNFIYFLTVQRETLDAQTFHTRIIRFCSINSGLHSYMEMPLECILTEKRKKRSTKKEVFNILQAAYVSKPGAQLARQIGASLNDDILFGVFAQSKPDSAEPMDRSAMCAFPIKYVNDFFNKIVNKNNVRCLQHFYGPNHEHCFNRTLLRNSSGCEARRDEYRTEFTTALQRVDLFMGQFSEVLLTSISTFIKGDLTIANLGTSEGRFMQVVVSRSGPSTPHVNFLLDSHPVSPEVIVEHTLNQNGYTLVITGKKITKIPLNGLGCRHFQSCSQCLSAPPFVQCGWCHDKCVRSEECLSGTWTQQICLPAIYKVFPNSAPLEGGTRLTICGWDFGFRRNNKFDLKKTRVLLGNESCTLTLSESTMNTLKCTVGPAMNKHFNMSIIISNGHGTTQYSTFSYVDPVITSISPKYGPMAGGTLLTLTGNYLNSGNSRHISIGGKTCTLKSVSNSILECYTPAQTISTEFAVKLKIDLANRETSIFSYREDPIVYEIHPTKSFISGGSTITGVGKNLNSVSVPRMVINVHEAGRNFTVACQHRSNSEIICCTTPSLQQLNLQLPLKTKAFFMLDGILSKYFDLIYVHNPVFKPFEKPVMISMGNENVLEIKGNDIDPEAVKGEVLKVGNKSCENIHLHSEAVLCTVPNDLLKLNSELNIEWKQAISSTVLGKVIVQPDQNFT
cynomolgus monkey C-MET His tag, monomeric (cynomolgus monkey), sequence (A0M8R7 25-932 S170N/I621T): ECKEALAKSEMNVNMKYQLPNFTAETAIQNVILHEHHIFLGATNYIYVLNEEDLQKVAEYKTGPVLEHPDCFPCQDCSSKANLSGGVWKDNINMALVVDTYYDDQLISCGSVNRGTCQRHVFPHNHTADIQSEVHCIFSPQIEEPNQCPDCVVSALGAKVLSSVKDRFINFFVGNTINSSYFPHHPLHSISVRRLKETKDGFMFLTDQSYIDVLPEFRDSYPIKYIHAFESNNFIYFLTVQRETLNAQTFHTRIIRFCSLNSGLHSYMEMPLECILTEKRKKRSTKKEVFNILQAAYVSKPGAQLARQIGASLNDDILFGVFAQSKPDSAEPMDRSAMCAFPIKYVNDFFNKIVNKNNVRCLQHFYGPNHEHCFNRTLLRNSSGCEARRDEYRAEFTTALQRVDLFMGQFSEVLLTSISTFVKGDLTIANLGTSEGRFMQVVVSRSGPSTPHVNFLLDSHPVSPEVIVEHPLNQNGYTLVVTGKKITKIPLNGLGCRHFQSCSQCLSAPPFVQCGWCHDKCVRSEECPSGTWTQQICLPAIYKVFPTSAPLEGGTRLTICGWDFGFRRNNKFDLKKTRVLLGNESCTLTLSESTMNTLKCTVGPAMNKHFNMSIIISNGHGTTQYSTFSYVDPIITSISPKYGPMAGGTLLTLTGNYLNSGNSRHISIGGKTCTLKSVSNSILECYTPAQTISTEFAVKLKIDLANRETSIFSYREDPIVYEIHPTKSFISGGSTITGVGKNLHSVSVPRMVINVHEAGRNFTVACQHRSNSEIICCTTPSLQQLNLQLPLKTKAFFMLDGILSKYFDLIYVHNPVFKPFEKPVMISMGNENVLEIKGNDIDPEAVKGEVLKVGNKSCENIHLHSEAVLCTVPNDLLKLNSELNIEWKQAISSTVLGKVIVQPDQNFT
human C-MET on stably transfected CHO-K1 cells (human), sequence (P08581 25-1390 limits assumed): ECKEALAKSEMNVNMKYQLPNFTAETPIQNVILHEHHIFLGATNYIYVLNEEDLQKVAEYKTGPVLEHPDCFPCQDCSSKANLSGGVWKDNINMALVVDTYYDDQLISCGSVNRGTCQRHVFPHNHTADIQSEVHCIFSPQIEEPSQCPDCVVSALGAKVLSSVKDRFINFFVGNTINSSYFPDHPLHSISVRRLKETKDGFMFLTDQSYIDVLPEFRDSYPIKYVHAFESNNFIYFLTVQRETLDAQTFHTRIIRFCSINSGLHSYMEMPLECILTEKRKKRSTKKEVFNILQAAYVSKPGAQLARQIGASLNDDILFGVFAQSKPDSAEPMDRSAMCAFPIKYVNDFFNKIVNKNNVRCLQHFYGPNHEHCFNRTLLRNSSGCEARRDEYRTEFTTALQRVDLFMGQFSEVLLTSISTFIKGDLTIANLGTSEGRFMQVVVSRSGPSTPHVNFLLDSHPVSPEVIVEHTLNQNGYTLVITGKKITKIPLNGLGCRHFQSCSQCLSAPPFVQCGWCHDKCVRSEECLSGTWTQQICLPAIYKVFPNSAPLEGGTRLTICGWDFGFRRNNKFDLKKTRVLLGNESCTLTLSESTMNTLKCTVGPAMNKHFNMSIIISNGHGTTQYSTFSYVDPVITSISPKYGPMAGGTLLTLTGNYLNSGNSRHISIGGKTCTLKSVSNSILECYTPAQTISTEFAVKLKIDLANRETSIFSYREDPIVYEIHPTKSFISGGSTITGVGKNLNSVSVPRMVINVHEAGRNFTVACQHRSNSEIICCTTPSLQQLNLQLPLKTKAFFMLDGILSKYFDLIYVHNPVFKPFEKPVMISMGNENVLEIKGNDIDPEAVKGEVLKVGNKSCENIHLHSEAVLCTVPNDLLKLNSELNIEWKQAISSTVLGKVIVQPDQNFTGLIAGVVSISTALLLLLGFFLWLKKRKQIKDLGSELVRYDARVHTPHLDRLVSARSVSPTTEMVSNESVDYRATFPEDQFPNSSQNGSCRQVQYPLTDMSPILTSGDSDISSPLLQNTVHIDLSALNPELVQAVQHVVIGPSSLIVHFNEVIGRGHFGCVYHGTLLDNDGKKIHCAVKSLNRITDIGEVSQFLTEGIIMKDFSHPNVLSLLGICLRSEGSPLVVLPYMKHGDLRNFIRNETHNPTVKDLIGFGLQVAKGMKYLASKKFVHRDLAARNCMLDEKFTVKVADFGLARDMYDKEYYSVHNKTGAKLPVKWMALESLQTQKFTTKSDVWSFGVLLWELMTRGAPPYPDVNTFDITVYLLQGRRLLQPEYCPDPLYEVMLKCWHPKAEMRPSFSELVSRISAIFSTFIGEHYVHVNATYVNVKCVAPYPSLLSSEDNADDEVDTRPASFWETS

B1: 09A12 (antibody, IgG4, V domains shown)
VH: QVQLVQSGAEVKKPGASVKVSCKASGYTFTSYSMHWVRQAPGQGLEWMGWINPNGGLTNYAQKFRGRVTMTRDTSTSTVYMELSSLRSEDTAVYYCAREEITTEFDYWGQGTLVTVSS
VL: EIVLTQSPGTLSLSPGERATLSCRASQSVSSYAQSYLHWYQQKPGQAPRLLIYRASTRETGIPDRFSGSGSGTDFTLTISRLEPEDFAVYYCQQSKESPLTFGGGTKVEIK
Usually Kd stands for a measure of binding affinity in units of concentration. The koff is the rate constant with which the complex falls apart. As usually defined, the kon is the second-order rate constant of association. As usually defined, the EC50 is the concentration giving half of the maximal effect. In test [1], B1 displayed a Kd of 1.5 nM, a koff of 0.00023 s⁻¹ and a kon of 160000 M⁻¹ s⁻¹. In test [2], this molecule gave a Kd of 2 nM, a koff of 0.00015 s⁻¹ and an association rate constant (kon) of 74000 M⁻¹ s⁻¹. For the same molecule, in test [3], the EC50 was found to be 2.33 nM and the maximum MFI, fold over Isotype IgG4 background is above 10 fold. In test [4], the EC50 is 0.28 nM and the maximum MFI, fold over Isotype IgG4 background was above 10 fold.

B2: 07A01 (antibody, IgG4, V domains shown)
VH: QVQLVQSGAEVKKPGASVKVSCKASGYIFTSYTMHWVRQAPGQGLEWMGWINPNGGLASYAQKFQGRVTMTRDTSTSTVYMELSSLRSEDTAVYYCARSEITTEQDYWGQGTLVTVSS
VL: EIVLTQSPGTLSLSPGERATLSCRASQSVDSYANSYLHWYQQKPGQAPRLLIYRGSTRESGIPDRFSGSGSGTDFTLTISRLEPEDFAVYYCQQSKESPLTFGGGTKVEIK
In test [1], B2 registered a Kd of 0.17 nM, a koff of 1.6e-05 s⁻¹ and an on-rate constant (kon) of 94000 M⁻¹ s⁻¹. In test [2], the Kd stood at 0.24 nM, the koff was 1.3e-05 s⁻¹ and the kon is 56000 M⁻¹ s⁻¹. In test [3], this molecule showed an EC50 of 7.44 nM and a maximum MFI, fold over Isotype IgG4 background above 10 fold. In test [4], the EC50 stood at 1.74 nM and the maximum MFI, fold over Isotype IgG4 background was above 10 fold. Further, the cyno C-MET affinity, fold of the human C-MET affinity in test [5] was below 2 fold.
